Results from publication PMC12383448.

Key:
[1] = target: His8 (UniProt position 193, ACLSCHQQIHR); test: NMR
[2] = target: His12 (UniProt position 197, CHQQIHRNAPI); test: NMR
[3] = 10 °C, not stated for the titration sample (the pH 6.0 zinc-binding NMR samples had no other added buffers or salts), not stated (no added buffer reported for the NMR samples), folded, Zn2+-bound (0.9 mM ZL with equimolar ZnCl2)

ZC4H2 zinc finger peptide ZL (ZC4H2-ZL) (Homo sapiens)
pKa [1, 3]: 6.9 ± 0.1
pKa ([1]; unfolded, zinc-free ZL peptide): near 6.0
pKa [2, 3]: 5.5 ± 0.1
pKa ([2]; unfolded, zinc-free ZL peptide): near 6.0
